The target of assay [1] is T1, recombinant human proprotein convertase subtilisin/kexin 9 (hPCSK9), his-tagged (Homo sapiens, UniProt Q8NBP7).
T1 construct: human PCSK9, recombinant, his-tagged (Sinobiological); No catalogue number is printed; also called human PCSK9; source: bought: Sinobiological, China
Nature of the assay: SPR; hPCSK9 (10 μg/mL in 10 mM sodium acetate pH 4.0) on flow cell 2 of a CM5 chip at 790 RU, flow cell 1 blank; VHH-based proteins injected in two-fold dilutions (five or three points); 25 °C, Biacore T200; binding 120 s, dissociation 300 s or 350 s; regeneration glycine pH 2.3. As to conditions: both partners purified.

Assay [2] addresses T1, recombinant human proprotein convertase …. The assay is described as above. As to conditions: both partners purified. This is another data set of the same source.

T1 sequence (Q8NBP7 153-692): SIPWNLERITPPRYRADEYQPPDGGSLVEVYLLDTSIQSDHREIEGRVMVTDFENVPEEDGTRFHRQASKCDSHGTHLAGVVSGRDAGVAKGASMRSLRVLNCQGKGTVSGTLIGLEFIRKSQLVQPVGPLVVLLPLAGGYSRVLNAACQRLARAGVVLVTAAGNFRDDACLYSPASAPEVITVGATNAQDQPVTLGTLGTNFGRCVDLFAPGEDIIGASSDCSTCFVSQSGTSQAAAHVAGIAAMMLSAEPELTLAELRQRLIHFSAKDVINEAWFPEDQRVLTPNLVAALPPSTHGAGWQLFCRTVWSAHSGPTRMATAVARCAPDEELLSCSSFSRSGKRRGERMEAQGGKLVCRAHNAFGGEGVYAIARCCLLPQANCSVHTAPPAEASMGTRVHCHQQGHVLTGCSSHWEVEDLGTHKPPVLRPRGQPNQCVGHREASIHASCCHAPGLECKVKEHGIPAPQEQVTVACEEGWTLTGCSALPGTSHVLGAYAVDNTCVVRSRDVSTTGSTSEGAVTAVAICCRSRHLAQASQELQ

B1: VHH-Z1 (VHH-B11 humanized mutant) (VHH)
VHH: EVQLLESGGGLVQPGGSLRLSCTVSGYTYSSNCMGWFRQAPGKEHEGVSSIYIGGGSTYYADSVKGRFTISRDNSKNTLYLQMNSLRAEDTAVYYCAVGCQGLVDFGYWDQGTQVTVSS
notes: as the chain of m2, mutated at several of the 17 hotspots; has 80Pro in FR3; source: P. pastoris X33, secreted, purified
As for B1, the binding result in assay [1] is reported as “binds”.

B2: humanized VHH-B11 (Hu-B11), mutated at all 17 hotspots (VHH)
VHH: EVQLLESGGGLVQPGGSLRLSCAASGYTYSSNCMGWVRQAPGKGLEWVSSIYIGGGSTYYADSVKGRFTISRDNSKNTLYLQMNSLRAEDTAVYYCAVGCQGLVDFGYWDQGTQVTVSS
notes: as the chain of m2 with 17 humanising mutations in FR1-3; source: P. pastoris X33, secreted, purified
On to B2, for which, in assay [1], the Kd worked out at 39.7 nM.

B3: VHH-Z5 (VHH-B11 humanized mutant) (VHH)
VHH: EVQLLESGGGLVQPGGSLRLSCAASGYTYSSNCMGWFRQAPGKEHEGVSSIYIGGGSTYYADSVKGRFTISQDNSKNTVYLQMNSLRAEDTAVYYCAVGCQGLVDFGYWDQGTQVTVSS
notes: as the chain of m2, mutated at several of the 17 hotspots; has 87Val in FR3; source: P. pastoris X33, secreted, purified
On to B3, for which the binding result in assay [1] is on record as “binds”.

B4: VHH-B11 (monovalent camelid nanobody against hPCSK9) (VHH)
VHH: QVQLQESGGGSVQAGGSLRLSCTVSGYTYSSNCMGWFRQAPGKEHEGVASIYIGGGSTYYADSVKGRFTISQDNAKNTVYLQMNSLKPEDTAMYYCAVGCQGLVDFGYWDQGTQVTVSS
notes: VHH-B11, llama nanobody; Also expressed in E. coli and HEK293F; also called VHH-B11 Ab; wild type VHH-B11
For B4, the Kd in assay [2] was about 4.4 nM.

B5: VHH-Z3 (VHH-B11 humanized mutant) (VHH)
VHH: EVQLLESGGGLVQPGGSLRLSCAASGYTYSSNCMGWFRQAPGKEHEGVASIYIGGGSTYYADSVKGRFTISQDNAKNTLYLQMNSLRAEDTAVYYCAVGCQGLVDFGYWDQGTQVTVSS
notes: as the chain of m2, mutated at several of the 17 hotspots; has 54Ala in FR2 and 83Ala in FR3; source: P. pastoris X33, secreted, purified
For the molecule B5, the binding result in assay [1] is listed as “binds”.

The record behind these values is publication PMC9288512, “Development and characterization of a camelid derived antibody targeting a linear epitope in the hinge domain of human PCSK9 protein” (Scientific Reports, 2022).
